Experimental data as given in the supplement of paper PMC9170038.

System: K4 kissing-loop RNA reporter
Test: apparent KD of K4 kissing-loop reporter; higher = weaker reporter binding
Conditions: Eterna round: R107
Method: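 RNA-MaP round R107: designed RNA switches with theophylline, tryptophan, arginine or FMN aptamers are transcribed on-chip within common flanks. They are titrated with a labelled K4 kissing-loop RNA reporter in RNA-MaP buffer (100 mM Tris pH 7.5, 80 mM KCl, 4 mM MgCl2), without ligand or with the indicated ligand. Median apparent KD per design.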

[1] = input ligand: theophylline 20 uM
[2] = input ligand: tryptophan 2.4 mM
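Note: bound reporter read as fluorescence of individual clusters on recovered sequencing chips by microscopy, with normalized cluster intensities fitted with a binding model.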

CGGAUGUAGUGAUGUUAUAUUAGAUGUAGACGAGGACCGGUACGGCCGCCACUCGUGACGGCUGCUAGCGCGUUGCGAGGUGUGC [ExTryptoA.Cm]
apparent KD of K4 kissing-loop reporter (input ligand: FMN 200 uM): 0.729 µM
apparent KD of K4 kissing-loop reporter (input ligand: arginine 13.2 mM): 0.575 µM
apparent KD of K4 kissing-loop reporter (input ligand: none): 0.657 µM
apparent KD of K4 kissing-loop reporter [1]: 0.69 µM
apparent KD of K4 kissing-loop reporter [2]: 0.603 µM

CAUUGUACACGGUGCGAAGACCCAAUGGAUACCAGCAAUACAUUAUGCCCUUGGCAGCCAAGAGUGAUGUUCGACGGACUAGAUU [theeternabot_sameState_KL_Theo_A_4]
apparent KD of K4 kissing-loop reporter (input ligand: FMN 200 uM): 0.249 µM
apparent KD of K4 kissing-loop reporter (input ligand: arginine 13.2 mM): 0.175 µM
apparent KD of K4 kissing-loop reporter (input ligand: none): 0.29 µM
apparent KD of K4 kissing-loop reporter [1]: 0.321 µM
apparent KD of K4 kissing-loop reporter [2]: 0.233 µM

UGACUGGACUGAAGGAGCGUUGAAGGAGCGUAAGUAGUGAUGUUGCUUACAGGUAGGUCGCAGCAGGUAGGUCGCAGUCUAGUCU
apparent KD of K4 kissing-loop reporter (input ligand: FMN 200 uM): 0.0671 µM
apparent KD of K4 kissing-loop reporter (input ligand: arginine 13.2 mM): 0.0437 µM
apparent KD of K4 kissing-loop reporter (input ligand: none): 0.063 µM
apparent KD of K4 kissing-loop reporter [1]: 0.0543 µM
apparent KD of K4 kissing-loop reporter [2]: 0.0526 µM

AAGGGCUAGGCGGCCGCCACUGGUUGUGAACACAUACGAGCCAGUGAUGUUGGUAUUGUGUGCGGCAGGACCGGGCCUAGCCGAA [Exclusion - Tryptophan B (Freestyle 23)]
apparent KD of K4 kissing-loop reporter (input ligand: FMN 200 uM): 0.36 µM
apparent KD of K4 kissing-loop reporter (input ligand: arginine 13.2 mM): 0.299 µM
apparent KD of K4 kissing-loop reporter (input ligand: none): 0.346 µM
apparent KD of K4 kissing-loop reporter [1]: 0.3 µM
apparent KD of K4 kissing-loop reporter [2]: 0.322 µM

AGCAUUUUCAGAAGGAGCGUGAAUUAUUCUUAAGUAUAUUAUACGAGUGAUGUUCGUAUUUCACAGGUAGGUCGCUGAUAUAGCA [JR_SSArginiB_Sub003]
apparent KD of K4 kissing-loop reporter (input ligand: FMN 200 uM): 0.0574 µM
apparent KD of K4 kissing-loop reporter (input ligand: arginine 13.2 mM): 0.0892 µM
apparent KD of K4 kissing-loop reporter (input ligand: none): 0.0546 µM
apparent KD of K4 kissing-loop reporter [1]: 0.0762 µM
apparent KD of K4 kissing-loop reporter [2]: 0.0468 µM

AGGAUCCGUCGACAAAAGUCGACAAUAACCAAGGAUAUGACGAAAGUCAGAAGGUGGUCUUAUGACCAGUGAUGUUGGUGGAUCC [FmnA 15 #SwitchBubble #K4Late]
apparent KD of K4 kissing-loop reporter (input ligand: FMN 200 uM): 0.891 µM
apparent KD of K4 kissing-loop reporter (input ligand: arginine 13.2 mM): 0.245 µM
apparent KD of K4 kissing-loop reporter (input ligand: none): 0.5 µM
apparent KD of K4 kissing-loop reporter [1]: 0.197 µM
apparent KD of K4 kissing-loop reporter [2]: 0.243 µM

GCAGUGAUGUUGCUGAUGUGCAGUGGUAGUCGAGGACCGGUACGGCCGCCACUCGGUGAGAAUUUGUUAAUACAUCGAUAAGUGA [XVI]
apparent KD of K4 kissing-loop reporter (input ligand: FMN 200 uM): 0.968 µM
apparent KD of K4 kissing-loop reporter (input ligand: arginine 13.2 mM): 0.558 µM
apparent KD of K4 kissing-loop reporter (input ligand: none): 0.788 µM
apparent KD of K4 kissing-loop reporter [1]: 0.509 µM
apparent KD of K4 kissing-loop reporter [2]: 0.707 µM

GCGUAGGAAGAAGGAUAUCACAGGAUGCCACGUUAGUGAUGUUAAUUUGGUUCAGCGCGAUUCUGAUGAGAAGGUCUUUUAUGAU [theeternabot_sameState_KL_FMN_B_47]
apparent KD of K4 kissing-loop reporter (input ligand: FMN 200 uM): 0.22 µM
apparent KD of K4 kissing-loop reporter (input ligand: arginine 13.2 mM): 0.3 µM
apparent KD of K4 kissing-loop reporter (input ligand: none): 0.295 µM
apparent KD of K4 kissing-loop reporter [1]: 0.205 µM
apparent KD of K4 kissing-loop reporter [2]: 0.21 µM

UAUAUAGUGACGGCCGCCACUAUAUUAAUGUUUUUGUUAGAGUGAUGUUUUGUUUUUUAAUUUUAUAGGACCGGGUUAUAUGUUA [xnxmullin]
apparent KD of K4 kissing-loop reporter (input ligand: FMN 200 uM): 0.275 µM
apparent KD of K4 kissing-loop reporter (input ligand: arginine 13.2 mM): 0.155 µM
apparent KD of K4 kissing-loop reporter (input ligand: none): 0.253 µM
apparent KD of K4 kissing-loop reporter [1]: 0.335 µM
apparent KD of K4 kissing-loop reporter [2]: 0.188 µM

UGUCAUUGGUCGGCCGCCACUUUGUAUGGAGUGAUGUUUUGUAGAUUGUGUUGAAAGGUGUGGUGAAGGACCGGGACCGAUGACU [FiskerMod 24 - Jieux - Same State - Tryptophan B]
apparent KD of K4 kissing-loop reporter (input ligand: FMN 200 uM): 1.07 µM
apparent KD of K4 kissing-loop reporter (input ligand: arginine 13.2 mM): 0.652 µM
apparent KD of K4 kissing-loop reporter (input ligand: none): 0.922 µM
apparent KD of K4 kissing-loop reporter [1]: 0.841 µM
apparent KD of K4 kissing-loop reporter [2]: 0.749 µM

ACGGAUACGCGAGAUACCAGAGGCAUUCGCCAGCGACCAUAAUGUCCCGAGAGUGAUGUUCUCCCUUGGCAGCUCAUGGUUAAUU [theeternabot_exclusion_KL_Theo_B_2]
apparent KD of K4 kissing-loop reporter (input ligand: FMN 200 uM): 0.484 µM
apparent KD of K4 kissing-loop reporter (input ligand: arginine 13.2 mM): 0.4 µM
apparent KD of K4 kissing-loop reporter (input ligand: none): 0.468 µM
apparent KD of K4 kissing-loop reporter [1]: 0.57 µM
apparent KD of K4 kissing-loop reporter [2]: 0.385 µM

AAACAUCACUGGGAGUGAUGUUCUCAGUGACGAGGACCGGUACGGCCGCCACUCGCGAGAGAUAUAGUCAAGUAAUGACUGCAUU [Excl Tryptophan A V9]
apparent KD of K4 kissing-loop reporter (input ligand: FMN 200 uM): 0.365 µM
apparent KD of K4 kissing-loop reporter (input ligand: arginine 13.2 mM): 0.309 µM
apparent KD of K4 kissing-loop reporter (input ligand: none): 0.407 µM
apparent KD of K4 kissing-loop reporter [1]: 0.375 µM
apparent KD of K4 kissing-loop reporter [2]: 0.413 µM

AGCGGCGCGCUGGAUACCAGUGUCCGACGCGUUAGUAUAGAUCCAAAGUGAUGUUUUGGUCACCCUUGGCAGCCACCUCUGUCGG [theeternabot_exclusion_KL_Theo_B_29]
apparent KD of K4 kissing-loop reporter (input ligand: FMN 200 uM): 0.237 µM
apparent KD of K4 kissing-loop reporter (input ligand: arginine 13.2 mM): 0.192 µM
apparent KD of K4 kissing-loop reporter (input ligand: none): 0.245 µM
apparent KD of K4 kissing-loop reporter [1]: 0.257 µM
apparent KD of K4 kissing-loop reporter [2]: 0.195 µM

GGAUAGGACAUAGGAUAUGGGCUAGGCAAGAAUAACUUGUCUAGCAAAUCCAUGAGGAGUGAUGUUCCAGAAGGAUGUCCUAUCG [FmnBX 1 U11+A75]
apparent KD of K4 kissing-loop reporter (input ligand: FMN 200 uM): 0.566 µM
apparent KD of K4 kissing-loop reporter (input ligand: arginine 13.2 mM): 0.108 µM
apparent KD of K4 kissing-loop reporter (input ligand: none): 0.112 µM
apparent KD of K4 kissing-loop reporter [1]: 0.123 µM
apparent KD of K4 kissing-loop reporter [2]: 0.0845 µM

AUAUAUAACUGAAGGAGCGAGGCCAAAUAUAUAUAGUGAUGUUAUAUAAAGGCACAUAGGCCUCAGGUAGGUCGCAGAAUAAUAU [AstrosExyArGB#1]
apparent KD of K4 kissing-loop reporter (input ligand: FMN 200 uM): 0.284 µM
apparent KD of K4 kissing-loop reporter (input ligand: arginine 13.2 mM): 0.274 µM
apparent KD of K4 kissing-loop reporter (input ligand: none): 0.277 µM
apparent KD of K4 kissing-loop reporter [1]: 0.271 µM
apparent KD of K4 kissing-loop reporter [2]: 0.281 µM

GCCGUACGCAUGGAUACCAGCUGCGAAGUGAUGUUUCGGGCGAUCAAAGGAUCGCCCUACAGCCCUUGGCAGCCAUGCGUACGGC
apparent KD of K4 kissing-loop reporter (input ligand: FMN 200 uM): 0.215 µM
apparent KD of K4 kissing-loop reporter (input ligand: arginine 13.2 mM): 0.117 µM
apparent KD of K4 kissing-loop reporter (input ligand: none): 0.173 µM
apparent KD of K4 kissing-loop reporter [1]: 0.125 µM
apparent KD of K4 kissing-loop reporter [2]: 0.118 µM

CGCGCCCGGCCGGAUACCAGUGACCCGCUGGGAACCGCGGGCCCAGAGUGAUGUUCGGGACACCCUUGGCAGCCGCCUGGGCGUG [#2 Same State - Theophylline B Attempt #5 (HarryS)]
apparent KD of K4 kissing-loop reporter (input ligand: FMN 200 uM): 1.11 µM
apparent KD of K4 kissing-loop reporter (input ligand: arginine 13.2 mM): 0.364 µM
apparent KD of K4 kissing-loop reporter (input ligand: none): 0.841 µM
apparent KD of K4 kissing-loop reporter [1]: 0.738 µM
apparent KD of K4 kissing-loop reporter [2]: 0.55 µM

UUUUUUAAGAUAUUGACCAACCCGAAGCUACGAGGACCGGUACGGCCGCCACUCGCCAGUGAUGUUGGCGACUGGUGAAACCAUG [KL-XTryp-A24]
apparent KD of K4 kissing-loop reporter (input ligand: FMN 200 uM): 0.126 µM
apparent KD of K4 kissing-loop reporter (input ligand: arginine 13.2 mM): 0.0989 µM
apparent KD of K4 kissing-loop reporter (input ligand: none): 0.106 µM
apparent KD of K4 kissing-loop reporter [1]: 0.105 µM
apparent KD of K4 kissing-loop reporter [2]: 0.185 µM

GGAGUUACCUGGGAUACCAGUCGGAGUCCCAGAGCACAGAGUGAUGUUCUGGGAUGUUUCGGCCCUUGGCAGCUCUGGGACUCCC [#2 Exclusion - Theophylline B Attempt #13 (HarryS)]
apparent KD of K4 kissing-loop reporter (input ligand: FMN 200 uM): 0.482 µM
apparent KD of K4 kissing-loop reporter (input ligand: arginine 13.2 mM): 0.254 µM
apparent KD of K4 kissing-loop reporter (input ligand: none): 0.142 µM
apparent KD of K4 kissing-loop reporter [1]: 0.402 µM
apparent KD of K4 kissing-loop reporter [2]: 0.222 µM

AAUAAAAUCACGGCCGCCACUGAUGUUAAUAUUAGCAGUGAUGUUGCUAUGUCGUUUUUCUUUAACAGGACCGGGUGAAUAUUUA [#22 K4 Tryptophan B Exclusion]
apparent KD of K4 kissing-loop reporter (input ligand: FMN 200 uM): 0.156 µM
apparent KD of K4 kissing-loop reporter (input ligand: arginine 13.2 mM): 0.15 µM
apparent KD of K4 kissing-loop reporter (input ligand: none): 0.17 µM
apparent KD of K4 kissing-loop reporter [1]: 0.171 µM
apparent KD of K4 kissing-loop reporter [2]: 0.148 µM

ACCUCACAGUGAUGUUGUGAGCCGAUAGUGAAGGAUAUUGUAAAGUCAAGAAGGUCAUGUCAGUCACAAAACGUUAAGCCUCGCA [theeternabot_exclusion_KL_FMN_A_19]
apparent KD of K4 kissing-loop reporter (input ligand: FMN 200 uM): 0.275 µM
apparent KD of K4 kissing-loop reporter (input ligand: arginine 13.2 mM): 0.218 µM
apparent KD of K4 kissing-loop reporter (input ligand: none): 0.254 µM
apparent KD of K4 kissing-loop reporter [1]: 0.266 µM
apparent KD of K4 kissing-loop reporter [2]: 0.194 µM
